Assay results from patent US20240262878A1, “PHOTOACTIVATABLE GASDERMIN PROTEINS” (THE BOARD OF TRUSTEES OF THE UNIVERSITY OF ILLINOIS, priority 2021, published 2024).

What was measured:
GSDMD pores = molecular target: T1, GSDMD pores (Homo sapiens, UniProt P57764); experiment: Free-standing planar lipid bilayer electrophysiology of reconstituted GSDMD pores; assay type: biochemical
T1 construct: His-SUMO (N, cleaved yes); made in house; host or cells: E. coli BL21
T1 sequence (P57764 1-275 limits assumed): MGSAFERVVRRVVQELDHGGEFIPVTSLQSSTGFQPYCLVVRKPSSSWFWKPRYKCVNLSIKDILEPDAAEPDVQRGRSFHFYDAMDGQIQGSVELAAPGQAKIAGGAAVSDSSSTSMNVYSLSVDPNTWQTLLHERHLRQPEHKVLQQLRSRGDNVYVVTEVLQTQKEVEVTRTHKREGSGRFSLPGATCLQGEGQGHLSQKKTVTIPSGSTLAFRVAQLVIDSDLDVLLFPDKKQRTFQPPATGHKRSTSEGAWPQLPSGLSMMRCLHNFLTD
Description: Protein Purification. Plasmid encoding the full length human GSDMD with a N-terminal His-SUMO tag was transformed into E. coli BL21 strain. The cultures were grown at 37° C. until OD600 0.8, and protein expression was induced with 0.2 mM isopropyl β-D-1-thiogalactopyranoside (IPTG) overnight at 20° C. The cells were harvested by centrifugation and the pellet was resuspended in 20 mM Tris buffer, pH 7.5, 50 mM NaCl, 5 mM imidazole, 20 mM MgCl2, 10 mM KCl, 0.5 mM TCEP, 0.1 mM protease inhibitor, and DNase I. After resuspension, cells were disrupted by high-pressure and centrifuged at 30,000 g at 4° C. for 1 hour. The supernatant was incubated for 2 hours at room temperature with pre-equilibrated Ni-NTA affinity resin (Thermo Scientific) and then passed through a column for gravity flow purification. The column was washed with 20 column volumes of resuspension buffer, and the fusion protein was eluted with three column volumes of the same buffer with 250 mM imidazole. SUMO-tag cleavage was achieved by addition of ULP1 protease to the solution and subsequent dialysis overnight at 4° C. against 20 mM Tris buffer, pH 7.5, 50 mM NaCl, 0.5 mM TCEP. GSDMD was eluted from a second round of purification through pre-equilibrated Ni-NTA affinity resin. The protein was further purified by HI-TRAP® Q ion-exchange resin and a SUPERDEX® 75 gel filtration column (GE Healthcare) pre-equilibrated with 20 mM Tris buffer, pH 7.5, 50 mM NaCl, 0.5 mM TCEP. The purified protein was concentrated to 20 mg/ml and frozen at −80° C.
Free-Standing Lipid Bilayer Formation and Electrophysiology. For the lipid bilayer, a bilayer chamber with a polystyrene cuvette was used. In addition, the folding method, which is based on Langmuir-Blodgett film formation (Kroemer et al. (2009) Cell Death Differ. 16:3-11; Weavers et al. (2016) Cell 165:1658-1671) was employed. Monolayers that were spread in the air-water interface were faced at the chamber hole (Bergsbaken & Fink (2009) Nat. Rev. Microbiol. 7:99-109; Mulvihill et al. (2018) EMBO J. 37 (14): e98321). In brief, a shallow trough made of polystyrene was filled with recording solution, and the surface was separated into two parts by one of the cuvette walls. Bilayers were formed by monolayers of 1:3 1-palmitoyl-2-oleoylphosphatidylethanolamine (POPE)/1-palmitoyl-2-oleoylphosphatidylcholine (POPC) (Avanti-lipids) in pentane; where appropriate, phosphoinositides of the indicated headgroup were introduced with di-oleoyl (18:1) fatty acid chains at 10% relative concentration. A small amount of phospholipid, dispersed in pentane solution, was dropped on one of the water surfaces and as pentane evaporated, the lipid molecules remained at the air-water interface. The movements of the lipid molecules became less vigorous, and eventually the lipid molecules packed together to form a monolayer. For the formation of the planar lipid bilayer by the folding method, a monolayer was formed at the air-water interface in each compartment. Upon raising the recording solution level by adding more solution, the monolayer ran up on the cuvette surface and passed through the hole, where the two monolayers from both sides encountered each other and formed a bilayer. The membrane formed by this method has been referred to as a “solvent-free” membrane. The advantage of this method over other methods, like the painting method, is the capacity to form an asymmetrical membrane in which the lipid composition of either leaflet is arbitrarily defined (Kayagaki et al. (2015) Nature 526: 666-671). Once formed, the membrane retains this asymmetry for a long time because the flip-flop or exchange of the lipid molecules between both leaflets of the membrane is very slow.
For incorporation of the GSDMD into the lipid bilayer, 2 μM of the purified GSDMD protein was added to the cis side chamber along with 2 μM of caspase 1. The specific membrane capacitance of the membrane formed by the folding method was 0.6-0.8 μF/cm^2. […]

living endothelial cells = experiment: Whole-cell patching after injection of activated recombinant GSDMD; assay type: cell-based; conditions: injection of activated protein, n=15
From the text: To further address whether the calcium dynamics primarily reflected that of GSDMD pores, whole-cell patching was directly recorded in living endothelial cells, which also undergo pyroptosis. […] Additionally, as befitting a large pore, the GSDMD pore opening/closing dynamics were not restricted to calcium observations. Calcium flares were visualized, which occurred in coincidence with the transient flux of a large fluorogenic molecule, within the same spatiotemporal context in living cells.

- mean current of single pores (GSDMD pores; POPE/POPC baseline bilayer): 32 pA
- open probability (GSDMD pores; POPE/POPC baseline bilayer): ~0.2
- time to micro-currents (protein-membrane interaction) after protein introduction (GSDMD pores; POPE/POPC baseline bilayer, GSDMD + caspase-1, n=20 bilayers): 27.2 ± 2.7 min
- ion selectivity of pores (GSDMD pores; ramp protocol, dual rectification): not inherently ion-selective
B1: GSDMD: purified recombinant full length human GSDMD, activated by caspase-1 (protein, UniProt P57764 1-484, looked up)
chain: MGSAFERVVRRVVQELDHGGEFIPVTSLQSSTGFQPYCLVVRKPSSSWFWKPRYKCVNLSIKDILEPDAAEPDVQRGRSFHFYDAMDGQIQGSVELAAPGQAKIAGGAAVSDSSSTSMNVYSLSVDPNTWQTLLHERHLRQPEHKVLQQLRSRGDNVYVVTEVLQTQKEVEVTRTHKREGSGRFSLPGATCLQGEGQGHLSQKKTVTIPSGSTLAFRVAQLVIDSDLDVLLFPDKKQRTFQPPATGHKRSTSEGAWPQLPSGLSMMRCLHNFLTDGVPAEGAFTEDFQGLRAEVETISKELELLDRELCQLLLEGLEGVLRDQLALRALEEALEQGQSLGPVEPLDGPAGAVLECLVLSSGMLVPELAIPVVYLLGALTMLSETQHKLLAEALESQTLLGPLELVGSLLEQSAPWQERSTMSLPPGLLGNSWGEGAPAWVLLDECGLELGEDTPHVCWEPQAQGRMCALYASLALLSGLSQEPH
modifications: full-length activated by caspase-1
- single pore currents, whole-cell patching (living endothelial cells): showed single pore currents
